We go through one molecule from patent US8088892B2, “Inhibitors of proteins from the Rho-GEF family” (Centre National de la Recherche Scientifique (C.N.R.S.), priority 2002, dated 2012).

Experiment in all cases: In vitro GEF assay on RhoA
Common to all, as to type: biochemical

Assay [1] concerns the target T1, TrioDH2 (Homo sapiens, UniProt O75962).
T1 construct: TrioDH2 (a.a. 1848-2096); made in house
Particulars: 20-fold molar excess (8 μM) aptamer, 0.4 μM GST-DH2. As for the experimental part: A 20-fold molar excess (8 μM) of GST-aptamers TRIAPα, TRIAPβ (another TrioGEFD2 binding aptamer), TRIAPγ (another TrioGEFD2 binding aptamer) or the empty thioredoxine (Trx) were pre-incubated with 0.4 μM GST-GEFD2 (left side of FIG. 2A) or 0.4 μM GST-DH2 (right side of FIG. 2A), as indicated, before adding 0.3 μM of [^3H]GDP loaded GST-RhoA. The exchange activity was monitored by the decrease of [^3H]GDP bound-RhoA after 15 min (see Materials and Methods). The amount of [^3H]GDP bound-RhoA incubated without GEF (first bar on the left) was defined as 100% The values and errors bars were calculated from at least three independent experiments.
An in vitro guanine nucleotide exchange (GEF) assay was used to test whether the TrioGEFD2-binding aptamers could inhibit the catalytic activity of TrioGEFD2 towards RhoA. For this purpose, the aptamers TRIAPα, TRIAPβ and TRIAPγ (including the Trx gene) were excised from pEG202 as EcoRI/NotI fragments and cloned into pGEX4T1 EcoRI/NotI. The aptamers were then expressed and purified from bacteria as GST fusion proteins, using standard procedures (Smith and Johnson, 1988). […] The catalytic activity of TrioGEFD2 was thus measured by the decrease of the GTPase-associated radioactivity. The results are expressed as the ratio “exchange after 15 min over exchange after 0 min” (% bound [^3H]GDP-RhoA). […]

For assay [2], the system named is Lbc. Details: key to in vitro GEF assay (inhibition): +++^2 and +^2 represent respectively a full and a partial (see FIG. 3) inhibitory effect; +++^2 and +^2 represent respectively a full and a partial (see FIG. 3) inhibitory effect; −−^2 represents a lack of inhibitory effect. Particulars: for Effect on Lbc exchange activity on RhoA: 20-fold molar excess, Lbc 0.4 μM. As for the experimental part: (§1) To test the specificity of TRIAPα inhibition in vitro, exchange experiments were performed either on RhoA with different RhoA-specific GEFs: Trio GEFD2 (0.4 μM), Kalirin GEFD2 (KalGEFD2, 1.7 μM), p63RhoGEF (Souchet et al., 2002) (0.4 μM) and Lbc (amino acids 172-598; Zheng et al., 1995) (0.4 μM), or on RhoG, with the RhoG-specific GEF domain of Trio (TrioGEFD1, 0.1 μM). Exchange assays were performed with the recombinant GEFs as described in FIG. 2A. Different concentrations of RhoGEFs were used to yield a similar nucleotide exchange efficiency. For each exchange factor, three independent experiments were done in absence (black bar) or in the presence (grey bar) of a 20-fold molar excess of TRIAPα.
(§2) An in vitro guanine nucleotide exchange (GEF) assay was used to test whether the TrioGEFD2-binding aptamers could inhibit the catalytic activity of TrioGEFD2 towards RhoA. For this purpose, the aptamers TRIAPα, TRIAPβ and TRIAPγ (including the Trx gene) were excised from pEG202 as EcoRI/NotI fragments and cloned into pGEX4T1 EcoRI/NotI. The aptamers were then expressed and purified from bacteria as GST fusion proteins, using standard procedures (Smith and Johnson, 1988). GTPase-GST fusion proteins were prepared, loaded with [^3H]GDP and the guanine nucleotide release assays were performed as described (Debant et al., 1996), using recombinant GST-TrioGEFD2 (a.a. 1848-2298), TrioDH2 (a.a. 1848-2096). For each point, 0.3 μM GTPase was mixed with or without 0.4 μM GEF in presence of non-labeled GTP, and the reaction mix was filtered after 0 min and 15 mm reaction at 25° C. The catalytic activity of TrioGEFD2 was thus measured by the decrease of the GTPase-associated radioactivity. The results are expressed as the ratio “exchange after 15 min over exchange after 0 min” (% bound [^3H]GDP-RhoA). To measure the effect of the aptamers on the exchange activity, a 20-fold molar excess of GST-TRIAPs was pre-incubated with GEFD2 (or GEFD1) for 30 min on ice before the exchange assay was carried out. For each experiment, data were obtained in triplicate.
(§3) The effect of GST-TRIAPα on other Rho-GEFs that display in vitro exchange activity on RhoA was next tested to investigate whether TRIAPα inhibition was specific of TrioGEFD2. The exchange activities of the RhoGEF Lbc (a.a. 1-424, FIG. 3)(Zheng et al., 1995) and Dbl (a.a. 495-826, data not shown) were not affected by GST-TRIAPα. The effect of GST-TRIAPα on the catalytic activity of RhoGEFs that display a high sequence similarity with TrioGEFD2 was then tested: the recently identified RhoA-specific p63RhoGEF (Souchet et al., 2002) (a.a. 149-374, 71.5% identity with TrioGEFD2, 0.4 μM) and the second Rho-GEF domain of the Trio family member Kalirin (KalGEFD2, a.a. 1850-2190, 65% identity with TrioGEFD2, 1.7 μM). Different concentrations of RhoGEFs were used to yield similar nucleotide exchange […]. For each exchange factor, three independent experiments were done in absence or in the presence of a 20-fold molar excess of GST-TRIAPα. […] Thus, the in vitro inhibitory activity of TRIAPα was selective for TrioGEFD2 (see table I for summary of the tested RhoGEFs).

Assay [3] addresses T2, p63RhoGEF (Homo sapiens, UniProt Q86VW2).
T2 construct: (a.a. 149-374, 71.5% identity with TrioGEFD2, 0.4 μM); made in house
Also on record: key to in vitro GEF assay (inhibition): +++^2 and +^2 represent respectively a full and a partial (see FIG. 3) inhibitory effect; +++^2 and +^2 represent respectively a full and a partial (see FIG. 3) inhibitory effect; −−^2 represents a lack of inhibitory effect. Conditions: for Effect on p63RhoGEF exchange activity on RhoA: 20-fold molar excess, p63RhoGEF 0.4 μM. As for the experimental part: as §1, §2, §3

For assay [4], the target named is T3, Dbl (Homo sapiens, UniProt P10911).
T3 construct: made in house
T3 sequence (P10911 495-826): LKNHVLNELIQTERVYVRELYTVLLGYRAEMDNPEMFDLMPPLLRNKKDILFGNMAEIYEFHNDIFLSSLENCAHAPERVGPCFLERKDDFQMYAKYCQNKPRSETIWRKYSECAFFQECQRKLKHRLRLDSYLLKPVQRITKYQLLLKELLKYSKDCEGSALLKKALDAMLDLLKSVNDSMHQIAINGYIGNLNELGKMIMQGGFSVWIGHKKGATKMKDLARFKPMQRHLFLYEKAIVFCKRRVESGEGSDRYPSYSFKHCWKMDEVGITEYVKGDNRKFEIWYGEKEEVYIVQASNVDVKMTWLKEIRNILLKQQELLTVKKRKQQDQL
Also on record: key to in vitro GEF assay (inhibition): +++^2 and +^2 represent respectively a full and a partial (see FIG. 3) inhibitory effect; +++^2 and +^2 represent respectively a full and a partial (see FIG. 3) inhibitory effect; −−^2 represents a lack of inhibitory effect. The source says:
An in vitro guanine nucleotide exchange (GEF) assay was used to test whether the TrioGEFD2-binding aptamers could inhibit the catalytic activity of TrioGEFD2 towards RhoA. For this purpose, the aptamers TRIAPα, TRIAPβ and TRIAPγ (including the Trx gene) were excised from pEG202 as EcoRI/NotI fragments and cloned into pGEX4T1 EcoRI/NotI. The aptamers were then expressed and purified from bacteria as GST fusion proteins, using standard procedures (Smith and Johnson, 1988). GTPase-GST fusion proteins were prepared, loaded with [^3H]GDP and the guanine nucleotide release assays were performed as described (Debant et al., 1996), using recombinant GST-TrioGEFD2 (a.a. 1848-2298), TrioDH2 (a.a. 1848-2096). For each point, 0.3 μM GTPase was mixed with or without 0.4 μM GEF in presence of non-labeled GTP, and the reaction mix was filtered after 0 min and 15 mm reaction at 25° C. The catalytic activity of TrioGEFD2 was thus measured by the decrease of the GTPase-associated radioactivity. The results are expressed as the ratio “exchange after 15 min over exchange after 0 min” (% bound [^3H]GDP-RhoA). To measure the effect of the aptamers on the exchange activity, a 20-fold molar excess of GST-TRIAPs was pre-incubated with GEFD2 (or GEFD1) for 30 min on ice before the exchange assay was carried out. For each experiment, data were obtained in triplicate. […]

T2 sequence (Q86VW2 149-374): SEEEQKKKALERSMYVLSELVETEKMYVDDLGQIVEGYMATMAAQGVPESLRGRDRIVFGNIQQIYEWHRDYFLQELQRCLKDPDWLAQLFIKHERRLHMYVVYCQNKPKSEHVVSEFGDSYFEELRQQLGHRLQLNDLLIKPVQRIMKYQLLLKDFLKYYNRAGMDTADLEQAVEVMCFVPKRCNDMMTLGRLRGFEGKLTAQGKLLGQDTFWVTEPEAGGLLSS
Lbc, sequence (Q12802 1994-2333 limits assumed): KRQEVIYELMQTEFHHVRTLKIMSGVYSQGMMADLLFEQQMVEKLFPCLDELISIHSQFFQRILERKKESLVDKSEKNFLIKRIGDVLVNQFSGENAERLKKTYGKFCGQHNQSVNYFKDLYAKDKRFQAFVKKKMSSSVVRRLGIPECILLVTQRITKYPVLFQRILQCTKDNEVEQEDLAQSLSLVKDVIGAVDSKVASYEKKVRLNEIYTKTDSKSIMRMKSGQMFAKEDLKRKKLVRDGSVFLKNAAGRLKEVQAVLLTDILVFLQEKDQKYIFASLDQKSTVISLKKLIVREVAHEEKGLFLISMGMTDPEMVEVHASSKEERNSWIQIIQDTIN

B1: TRIAPα: aptamer of 154 amino acids: variable region of 42 amino acids inserted into the thioredoxin protein; tested as GST fusion (protein)
chain: MSDKIIHLTDDSFDTDVLKADGAILVDFWAEWCGPAREGADGAICGYNLATLVMLGPSERVFCPLCEPCSSDIYELMGPCKMIAPILDEIADEYQGKLTVAKLNIDQNPGTAPKYGIRGIPTLLLFKNGEVASATKVGALSKGQLKEFLDANLA
As to B1, the “Inhibition of TrioDH2 exchange activity on RhoA in vitro” value in assay [1] was “inhibits”; in assay [1] (listed as GST-TRIAPα), “inhibited both TrioGEFD2 and TrioDH2 exchange activities”. Moreover, the results for the “Effect on Lbc exchange activity on RhoA” value in assay [2] and in assay [2] (listed as GST-TRIAPα) were “has no effect” and “not affected”, respectively. In addition, the “in vitro GEF assay (inhibition)” value in assay [2] (RhoGEF Lbc), in assay [3] (RhoGEF p63RhoGEF) and in assay [4] (RhoGEF Dbl) was “−−^2” throughout. The “Effect on p63RhoGEF exchange activity on RhoA” value in assay [3] is listed as “has no effect”; in assay [3] (listed as GST-TRIAPα) it was “had no effect”. The “Effect on Dbl exchange activity” value in assay [4] (data not shown) was “not affected”.
